Earlier results as cited in US20200069786A1, “COMPOSITION AND PROCESS FOR PREPARING VACCINE” (TREOS BIO ZRT., priority 2018, published 2020).
Read-outs that look alike come from different tables or passages of the source.

B1: ADAM29 (protein, UniProt Q9UKF5 194-820, looked up)
Disintegrin and …: WIHFRIVEIVVVIDNYLYIRYERNDSKLLEDLYVIVNIVDSILDVIGVKVLLFGLEIWTNKNLIVVDDVRKSVHLYCKWKSENITPRMQHDTSHLFTTLGLRGLSGIGAFRGMCTPHRSCAIVTFMNKTLGTFSIAVAHHLGHNLGMNHDEDTCRCSQPRCIMHEGNPPITKFSNCSYGDFWEYTVERTKCLLETVHTKDIFNVKRCGNGVVEEGEECDCGPLKHCAKDPCCLSNCTLTDGSTCAFGLCCKDCKFLPSGKVCRKEVNECDLPEWCNGTSHKCPDDFYVEDGIPCKERGYCYEKSCHDRNEQCRRIFGAGANTASETCYKELNTLGDRVGHCGIKNATYIKCNISDVQCGRIQCENVTEIPNMSDHTTVHWARFNDIMCWSTDYHLGMKGPDIGEVKDGTECGIDHICIHRHCVHITILNSNCSPAFCNKRGICNNKHHCHCNYLWDPPNCLIKGYGGSVDSGPPPKRKKKKKFCYLCILLLIVLFILLCCLYRLCKKSKPIKKQQDVQTPSAKEEEKIQRRPHELPPQSQPWVMPSQSQPPVTPSQSHPQVMPSQSQPPVTPSQSQPRVMPSQSQPPVMPSQSHPQLTPSQSQPPVTPSQRQPQLMPSQSQPPVTPS
B2: HORMAD2 (protein, UniProt Q8N7B1 1-307, looked up)
HORMA domain-containing …: MATAQLSHCITIHKASKETVFPSQITNEHESLKMVKKLFATSISCITYLRGLFPESSYGERHLDDLSLKILREDKKCPGSLHIIRWIQGCFDALEKRYLRMAVLTLYTDPMGSEKVTEMYQFKFKYTKEGATMDFDSHSSSTSFESGTNNEDIKKASVLLIRKLYILMQDLEPLPNNVVLTMKLHYYNAVTPHDYQPLGFKEGVNSHFLLFDKEPINVQVGFVSTGFHSMKVKVMTEATKVIDLENNLFRENSTTEIAHQGLDCDEEEECNDHIQRMNFVCSQQSSECSRKKRKVSEPVKVFIPNRK
B3: MAGE-B3 (protein, UniProt O15480 1-346, looked up)
Melanoma-associated antigen B3: MPRGQKSTLHAREKRQQTRGQTQDHQGAQITATNKKKVSFSSPLILGATIQKKSAGRSRSALKKPQRALSTTTSVDVSYKKSYKGANSKIEKKQSFSQGLSSTVQSRTDPLIMKTNMLVQFLMEMYKMKKPIMKADMLKIVQKSHKNCFPEILKKASFNMEVVFGVDLKKVDSTKDSYVLVSKMDLPNNGTVTRGRGFPKTGLLLNLLGVIFMKGNCATEEKIWEFLNKMRIYDGKKHFIFGEPRKLITQDLVKLKYLEYRQVPNSNPARYEFLWGPRAHAETSKMKVLEFWAKVNKTVPSAFQFWYEEALRDEEERVQAAAMLNDGSSAMGRKCSKAKASSSSHA
B4: LIPI (protein, UniProt Q6XZB0 16-460, looked up)
Lipase member I: DNKRPCLEFSQLSVKDSFRDLFIPRIETILMMYTRNNLNCAEPLFEQNNSLNVNFNTQKKTVWLIHGYRPVGSIPLWLQNFVRILLNEEDMNVIVVDWSRGATTFIYNRAVKNTRKVAVSLSVHIKNLLKHGASLDNFHFIGVSLGAHISGFVGKIFHGQLGRITGLDPAGPRFSRKPPYSRLDYTDAKFVDVIHSDSNGLGIQEPLGHIDFYPNGGNKQPGCPKSIFSGIQFIKCNHQRAVHLFMASLETNCNFISFPCRSYKDYKTSLCVDCDCFKEKSCPRLGYQAKLFKGVLKERMEGRPLRTTVFLDTSGTYPFCTYYFVLSIIVPDKTMMDGSFSFKLLNQLGMIEEPRLYEKNKPFYKLQEVKILAQFYNDFVNISSIGLTYFQSSNLQCSTCTYKIQSLMLKSLTYPERPPLCRYNIVLKDREEVFLNPNTCTPKNT
B5: CTAGE1 (protein, UniProt Q96RT6 1-745, looked up)
cTAGE family member 2: MRPDSHPYGFPWELVIRAAVAGFFAVLFLWRSFRSVTSRLYVRREKKFAVALSGLIEEKCKLLEKFSLVQKEYEGYEVESSLKNASFEKEATEAQSLEATCEKLNRFNSELVHEILCLEKELKEEKSKHSEQNELMADISKRIQSLEDESKSLKSQVAEAKMTFKRFQANEERLEIEIQDAWKENSELQESQKQLLQEAEVWKEQVSELIKQKRTFEDSKVHAEQVLNDKENHIKTLTERLLKMKDGVAMLEEDVTDDDNLELEMNSESEDGAYLDNPPKGALKKLIHAAKLNASLKTLEGERNQIYIQLSEVDKTKEELTEHIKNLQTEQASLQSENTHFESENQKLQQKLKVMTELYQENEMKLYRKLIVEEKCRLEKEEKLSKVDEMISHATEELETYRKRAKDLKEFEKTIHFYQKKIILHEKKAHDNWSAAWTAERNLNDLRKENAHNRQKLTEIEFKIKLLEKDPYGLDVPNTAFGRQHSPYGPSPLGWPSSETRASLYPPTLLEGPLRLSPLLPRGGGRGSRGPGNPPDHQITKERGESSCDRLTDPHRAPSDAGPLAPPWEQDYRMMFPPPGQSYPDSALPPQRQDRFYSNCARLSGPAELRSFNMPSLDKMDGSMPSEMESSRNDTKDNLGNLKVPDSSLPAENEATGPGFVPPPLAPIRGLLFPVDTRGPFIRRGPPFPPPPPGTVFGASPDYFSPRDVPGPPRAPFAMRNVYLPRGFLPYRPPRPAFFPPAPTF
B6: FAM133A (protein, UniProt Q8N9E0 1-248, looked up)
Protein FAM133A: MGKRDNRVAYMNPIAMARWRGPTQSVGPTIQDYLNRPRPTWEEVKKQLENKKTGSKALAEFEEKMNENWKKELEKSREKLLSGNESSSKKRERKKKRKKKSCRSSSSSSSSDSSSSSSDSEDEEKKQGKRRKKKKNRSYKSSQSSTHESESESKESVKKKKKSKDETEKEKDVRSLSKKRKKSYPDDKPLSSESSSESDYEEDVQAKKKRRCEEREQAKEKVKKKKKKQHKKHSKKKKKKSGSSHKSR
B7: CTNNA2 (protein, UniProt P26232 1-953, looked up)
Catenin alpha-2: MTSATSPIILKWDPKSLEIRTLTVERLLEPLVTQVTTLVNTSNKGPSGKKKGRSKKAHVLAASVEQATQNFLEKGEQIAKESQDLKEELVAAVEDVRKQGETMRIASSEFADDPCSSVKRGTMVRAARALLSAVTRLLILADMADVMRLLSHLKIVEEALEAVKNATNEQDLANRFKEFGKEMVKLNYVAARRQQELKDPHCRDEMAAARGALKKNATMLYTASQAFLRHPDVAATRANRDYVFKQVQEAIAGISNAAQATSPTDEAKGHTGIGELAAALNEFDNKIILDPMTFSEARFRPSLEERLESIISGAALMADSSCTRDDRRERIVAECNAVRQALQDLLSEYMNNTGRKEKGDPLNIAIDKMTKKTRDLRRQLRKAVMDHISDSFLETNVPLLVLIEAAKSGNEKEVKEYAQVFREHANKLVEVANLACSISNNEEGVKLVRMAATQIDSLCPQVINAALTLAARPQSKVAQDNMDVFKDQWEKQVRVLTEAVDDITSVDDFLSVSENHILEDVNKCVIALQEGDVDTLDRTAGAIRGRAARVIHIINAEMENYEAGVYTEKVLEATKLLSETVMPRFAEQVEVAIEALSANVPQPFEENEFIDASRLVYDGVRDIRKAVLMIRTPEELEDDSDFEQEDYDVRSRTSVQTEDDQLIAGQSARAIMAQLPQEEKAKIAEQVEIFHQEKSKLDAEVAKWDDSGNDIIVLAKQMCMIMMEMTDFTRGKGPLKNTSDVINAAKKIAEAGSRMDKLARAVADQCPDSACKQDLLAYLQRIALYCHQLNICSKVKAEVQNLGGELIVSGTGVQSTFTTFYEVDCDVIDGGRASQLSTHLPTCAEGAPIGSGSSDSSMLDSATSLIQAAKNLMNAVVLTVKASYVASTKYQKVYGTAAVNSPVVSWKMKAPEKKPLVKREKPEEFQTRVRRGSQKKHISPVQALSEFKAMDSF
B8: TEX14 (protein, UniProt Q8IWB6 1-1497, looked up)
Inactive …: MSRAVRLPVPCPVQLGTLRNDSLEAQLHEYVKQGNYVKVKKILKKGIYVDAVNSLGQTALFVAALLGLRKFVDVLVDYGSDPNHRCFDGSTPVHAAAFSGNQWILSKLLDAGGDLRLHDERGQNPKTWALTAGKERSTQIVEFMQRCASHMQAIIQGFSYDLLKKIDSPQRLVYSPSWCGGLVQGNPNGSPNRLLKAGVISAQNIYSFGFGKAMPWFQFYLTGATQMAYLGSLPVIGEKEVIQADDEPTFSFFSGPYMVMTNLVWNGSRVTVKELNLPTHPHCSRLRLADLLIAEQEHSSKLRHPYLLQLMAVCLSQDLEKTRLVYERITIGTLFSVLHERRSQFPVLHMEVIVHLLLQISDALRYLHFQGFIHRSLSSYAVHIISPGEARLTNLEYMLESEDRGVQRDLTRVPLPTQLYNWAAPEVILQKAATVKSDIYSFSMIMQEILTDDIPWKGLDGSVVKKAVVSGNYLEADVRLPKPYYDIVKSGIHVKQKDRTMNLQDIRYILKNDLKDFTGAQRTQPTESPRVQRYGLHPDVNVYLGLTSEHPRETPDMEIIELKEMGSQPHSPRVHSLFTEGTLDPQAPDPCLMARETQNQDAPCPAPFMAEEASSPSTGQPSLCSFEINEIYSGCLILEDDIEEPPGAASSLEADGPNQVDELKSMEEELDKMEREACCFGSEDESSSKAETEYSFDDWDWQNGSLSSLSLPESTREAKSNLNNMSTTEEYLISKCVLDLKIMQTIMHENDDRLRNIEQILDEVEMKQKEQEERMSLWATSREFTNAYKLPLAVGPPSLNYIPPVLQLSGGQKPDTSGNYPTLPRFPRMLPTLCDPGKQNTDEQFQCTQGAKDSLETSRIQNTSSQGRPRESTAQAKATQFNSALFTLSSHRQGPSASPSCHWDSTRMSVEPVSSEIYNAESRNKDDGKVHLKWKMEVKEMAKKAATGQLTVPPWHPQSSLTLESEAENEPDALLQPPIRSPENTDWQRVIEYHRENDEPRGNGKFDKTGNNDCDSDQHGRQPRLGSFTSIRHPSPRQKEQPEHSEAFQASSDTLVAVEKSYSHQSMQSTCSPESSEDITDEFLTPDGEYFYSSTAQENLALETSSPIEEDFEGIQGAFAQPQVSGEEKFQMRKILGKNAEILPRSQFQPVRSTEDEQEETSKESPKELKEKDISLTDIQDLSSISYEPDSSFKEASCKTPKINHAPTSVSTPLSPGSVSSAASQYKDCLESITFQVKTEFASCWNSQEFIQTLSDDFISVRERAKKLDSLLTSSETPPSRLTGLKRLSSFIGAGSPSLVKACDSSPPHATQRRSLPKVEAFSQHHIDELPPPSQELLDDIELLKQQQGSSTVLHENTASDGGGTANDQRHLEEQETDSKKEDSSMLLSKETEDLGEDTERAHSTLDEDLERWLQPPEESVELQDLPKGSERETNIKDQKVGEEKRKREDSITPERRKSEGVLGTSEEDELKSCFWKRLGWSESSRIIVLDQSDLSD
B9: PAGE2 (protein, UniProt Q7Z2X7 1-111, looked up)
P antigen family member 2: MSELLRARSQSSERGNDQESSQPVGSVIVQEPTEEKRQEEEPPTDNQGIAPSGEIENQAVPAFQGPDMEAFQQELALLKIEDEPGDGPDVREGIMPTFDLTKVLEAGDAQP
B10: TMEM31 (protein, UniProt Q5JXX7 1-168, looked up)
Transmembrane protein 31: MRLTEKSEGEQQLKPNNSNAPNEDQEEEIQQSEQHTPARQRTQRADTQPSRCRLPSRRTPTTSSDRTINLLEVLPWPTEWIFNPYRLPALFELYPEFLLVFKEAFHDISHCLKAQMEKIGLPIILHLFALSTLYFYKFFLPTILSLSFFILLVLLLLLFIIVFILIFF
B11: MAGE-A5 (protein, UniProt P43359 1-124, looked up)
Putative melanoma-associated …: MSLEQKSQHCKPEEGLDTQEEALGLVGVQAATTEEQEAVSSSSPLVPGTLGEVPAAGSPGPLKSPQGASAIPTAIDFTLWRQSIKGSSNQEEEGPSTSPDPESVFRAALSKKVADLIHFLLLKY

Test system: TSA
[1] = TSA expression rate in LUNG cancer
[2] = TSA expression rate in LEUKEMIAS
[3] = TSA expression rate in MELANOMA

Molecule | Expression Rate (ER) % [1] | Expression Rate (ER) % [2] | also measured
B1 | 7% |  | 
B2 | 5% |  | 
B3 | 0% |  | 
B4 | 0% | 6% | Expression Rate (ER) % (TSA expression rate in CRC): 0%; Expression Rate (ER) % (TSA expression rate in HEAD and NECK): 0%; Expression Rate (ER) % (TSA expression rate in Kidney): 25%; Expression Rate (ER) % [3]: 0%
B5 |  | 72% | Expression Rate (ER) % (TSA expression rate in BLADDER cancer): 53%; Expression Rate (ER) % (TSA expression rate in CRC): 19%
B6 |  | 83% | 
B7 |  | 45% | 
B8 |  | 5% | 
B9 |  | 4% | 
B10 |  |  | Expression Rate (ER) % [3]: 63%
B11 |  |  | TSA Expression Rate (ER) (BREAST): 9%; Expression Rate (ER) % (TSA expression rate in CRC): 7%; Expression Rate (ER) % [3]: 25%
